Entries after “also recorded” stand apart in the source; their conditions may differ.
Key:
[1] = target: T1, ICAM-1 (Homo sapiens, UniProt P05362); assay: Conformation modulator assay: flow cytometry of FITC-labeled RB-1-88 binding to T-cells after pre-incubation with first peptide; format: cell-based; settings: first peptide 4550 μM
T1 construct: host or cells: Molt3 human T-cell leukemia line
Method: The antibody binding assay of Example 2 was twice repeated at a peptide concentration of 4550 μM, each time substituting a 455 nmol quantity of synthetic peptide selected from the group consisting of ICAM-based peptide SC-3-111 (Sequence ID No. 10) and LFA-based peptide LJCRF-4 (Sequence ID No. 16) in respective assays. Following incubation for 30 minutes at 37° C. after introduction of the first peptides, both incubated culture were supplemented by an additional quantity of FITC-labeled RB-1-88 (Sequence ID No. 19) peptide in a quantity sufficient to provide a 1.90 μM concentration in the cell/PBS solution.
Following addition of the RB-1-88 (Sequence ID No. 19) peptide, the mixture was incubated for 30 minutes at 4° C., washed three times with 500 μl PBS/BSA, resuspended in 500 μl PBS/BSA and immediately subjected to a flow cytometer analysis as before. Table 3 presents the results of this analysis, which are also depicted in FIGS. 8 (SC-3-111) and 9 (LJCRF-4).

[2] = target: T2, LFA-1 (CD11a) (Homo sapiens, UniProt P20701); assay: Antibody binding assay (FACS): anti-LFA-1 mAb (mouse IgG anti-human CD11a) binding to Molt3 T-cells after peptide incubation; format: cell-based; settings: for Fluorescence, % change from control of the medium fluorescence intensity: mAb CD11a, average ± standard error of runs
T2 construct: host or cells: Molt3 human T-cell leukemia line
T2 sequence (P20701 26-1170): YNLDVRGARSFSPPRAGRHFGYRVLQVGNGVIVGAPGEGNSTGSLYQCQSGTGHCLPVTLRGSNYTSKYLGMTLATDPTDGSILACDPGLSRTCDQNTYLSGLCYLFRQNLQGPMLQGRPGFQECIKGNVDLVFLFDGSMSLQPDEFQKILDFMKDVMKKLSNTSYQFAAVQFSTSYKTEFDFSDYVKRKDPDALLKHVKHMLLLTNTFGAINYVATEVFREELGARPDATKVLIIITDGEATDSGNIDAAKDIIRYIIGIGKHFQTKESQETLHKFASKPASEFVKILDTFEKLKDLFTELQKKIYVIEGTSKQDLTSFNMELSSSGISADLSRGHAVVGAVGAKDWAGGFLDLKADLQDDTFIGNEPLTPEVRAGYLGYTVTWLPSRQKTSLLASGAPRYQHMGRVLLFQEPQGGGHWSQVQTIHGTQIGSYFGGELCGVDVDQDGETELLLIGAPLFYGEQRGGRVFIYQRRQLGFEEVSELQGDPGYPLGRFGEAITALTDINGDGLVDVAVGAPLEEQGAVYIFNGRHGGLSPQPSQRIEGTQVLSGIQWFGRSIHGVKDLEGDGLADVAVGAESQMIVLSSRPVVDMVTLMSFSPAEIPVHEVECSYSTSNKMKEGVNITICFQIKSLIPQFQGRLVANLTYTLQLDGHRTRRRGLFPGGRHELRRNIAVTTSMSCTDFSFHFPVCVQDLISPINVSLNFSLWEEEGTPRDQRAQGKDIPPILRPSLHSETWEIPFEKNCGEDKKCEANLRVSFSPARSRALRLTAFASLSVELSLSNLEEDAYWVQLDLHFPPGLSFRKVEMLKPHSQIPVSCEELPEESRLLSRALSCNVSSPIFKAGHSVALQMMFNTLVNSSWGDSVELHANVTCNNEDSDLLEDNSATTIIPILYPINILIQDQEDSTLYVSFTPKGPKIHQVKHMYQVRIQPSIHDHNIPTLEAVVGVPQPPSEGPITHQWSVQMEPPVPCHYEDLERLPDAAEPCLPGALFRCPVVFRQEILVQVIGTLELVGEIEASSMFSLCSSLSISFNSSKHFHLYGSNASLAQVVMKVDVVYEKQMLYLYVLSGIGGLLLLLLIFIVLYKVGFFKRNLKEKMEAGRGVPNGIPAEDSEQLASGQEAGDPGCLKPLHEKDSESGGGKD
T2 sequence (P05107 23-769 partner): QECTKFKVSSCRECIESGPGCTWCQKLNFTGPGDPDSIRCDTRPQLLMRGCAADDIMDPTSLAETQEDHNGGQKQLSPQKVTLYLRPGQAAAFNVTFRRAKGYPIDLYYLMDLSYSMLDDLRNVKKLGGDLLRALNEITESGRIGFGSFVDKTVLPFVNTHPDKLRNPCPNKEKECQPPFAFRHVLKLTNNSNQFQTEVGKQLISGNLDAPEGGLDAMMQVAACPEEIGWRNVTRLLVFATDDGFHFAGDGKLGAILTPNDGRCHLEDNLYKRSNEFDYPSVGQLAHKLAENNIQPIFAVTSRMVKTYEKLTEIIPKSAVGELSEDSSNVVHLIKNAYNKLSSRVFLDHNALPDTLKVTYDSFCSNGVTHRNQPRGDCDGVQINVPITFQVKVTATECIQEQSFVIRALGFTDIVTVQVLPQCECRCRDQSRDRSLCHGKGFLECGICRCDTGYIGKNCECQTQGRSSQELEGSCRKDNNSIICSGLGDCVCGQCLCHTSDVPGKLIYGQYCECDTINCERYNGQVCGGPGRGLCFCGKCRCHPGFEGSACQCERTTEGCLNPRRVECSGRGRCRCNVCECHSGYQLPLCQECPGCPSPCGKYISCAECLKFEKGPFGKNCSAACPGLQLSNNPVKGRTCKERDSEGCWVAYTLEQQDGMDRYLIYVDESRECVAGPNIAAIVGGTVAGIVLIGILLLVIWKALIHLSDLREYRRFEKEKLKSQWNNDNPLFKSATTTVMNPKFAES
Method: A 1 ml quantity of the Molt3 inoculum was warmed to 37° C. and transferred by pipette into about 25 ml of a growth culture medium including RPMI 1640 lymphocyte growth medium (Fisher Scientific of St. Louis, Miss.) mixed with 10% by volume fetal calf serum, 100 units/ml penicillin, 100 μg/ml streptomycin and 2 mM glutamine. The inoculated culture was incubated for three to four days at 37° C. under a normal atmosphere having about 5% CO2 added thereto. This culture was capable of being maintained indefinitely by siphoning away the top (non-cell containing) layer and adding 50 ml (or more) of growth culture medium at intervals of three to four days.
An aqueous buffer solution including Dulbecco's phosphate buffered saline and bovine serum albumin ("-PBS/BSA solution") was prepared for use, and included a mixture of 200 mg KH2 PO4, 1.15 g Na2 HPO4, 100 mg CaCl2, 200 mg KCl, 100 mg MgCl2.6H2 O, 8 g NaCl, with distilled water added to a final 1 liter volume at room temperature, thus, forming a "PBS" solution of pH 7.4 to which was added 0.5% by weight bovine serum albumin.
An aliquot of about 7 ml was removed from the incubated culture medium and subjected to washing with the PBS/BSA solution. The washing procedure was initiated by placing the aliquot in a centrifuge (Model GT422 from Jouan, distributed Piruscio & Assoc. of Manchester, Miss.) at 1400 rpm for 6.5 minutes to separate the cells from the growth medium. The supernatant fluid was decanted, a 5 ml portion of PBS/BSA solution was transferred by pipette into the pellet, and the mixture was again centrifuged as before. The resulting supernatant fluid was decanted and the cells from the pellet were resuspended in PBS/BSA solution at a titer of about 1×10^6 cells/ml. A 500 μl portion of the solution containing the resuspended cells was placed in a microcentrifuge (Marathon 13K/M from Fisher Scientific of St. Louis, Miss.) at 3500 rpm for six minutes, to provide a washed pellet.
[…] The cells were incubated with the peptide cocktail at 37° C. for 45 minutes.
After incubation with the peptide cocktail, several antibodies were successively mixed into the incubated solution. A 75 μl portion of anti-IgM solution (a mixture of 10 μl of goat anti-human IgM stock purchased from Jackson Immuno Research of Westgrove, Pa.; and 65 μl of PBS/BSA solution) was added to the peptide cocktail for blocking of nonspecific binding of the secondary antibody. The resulting mixture was incubated for 10 minutes on ice. About 0.1 μg of a primary antibody including mouse IgG anti-human CD11a (purified according to conventional protocols at the University of Kansas Department of Pharmacology and Toxicology from an American Type Culture hybridoma cell line having Catalogue Number HB-202) was next stirred into the mixture, which was then incubated for 30 minutes at room temperature. The incubated mixture was placed in a microcentrifuge at 3500 rpm for six minutes to remove the cells from the mixture, and the cell pellet was washed two times by adding 500 μl aliquots of PBS/BSA solution and microfuging to remove non-bound antibodies from the cells as before. The resulting washed pellet was resuspended in 100 μl of a secondary antibody cocktail including 5 μl of fluorescein isothiocyanate ("FITC") labeled goat anti-mouse IgG (from CALTAG of South San Francisco, Calif.) and 95 μl of PBS/BSA solution. The resulting solution was incubated for 30 minutes at room temperature in the dark.
The incubated solution including the secondary antibody cocktail was microfuged at 3500 rpm for six minutes to remove the cells from the solution, and the cell pellet was washed two times with 500 μl portions of PBS/BSA solution, as before, to remove unbound antibodies. […]

T1 sequence (P05362 28-532): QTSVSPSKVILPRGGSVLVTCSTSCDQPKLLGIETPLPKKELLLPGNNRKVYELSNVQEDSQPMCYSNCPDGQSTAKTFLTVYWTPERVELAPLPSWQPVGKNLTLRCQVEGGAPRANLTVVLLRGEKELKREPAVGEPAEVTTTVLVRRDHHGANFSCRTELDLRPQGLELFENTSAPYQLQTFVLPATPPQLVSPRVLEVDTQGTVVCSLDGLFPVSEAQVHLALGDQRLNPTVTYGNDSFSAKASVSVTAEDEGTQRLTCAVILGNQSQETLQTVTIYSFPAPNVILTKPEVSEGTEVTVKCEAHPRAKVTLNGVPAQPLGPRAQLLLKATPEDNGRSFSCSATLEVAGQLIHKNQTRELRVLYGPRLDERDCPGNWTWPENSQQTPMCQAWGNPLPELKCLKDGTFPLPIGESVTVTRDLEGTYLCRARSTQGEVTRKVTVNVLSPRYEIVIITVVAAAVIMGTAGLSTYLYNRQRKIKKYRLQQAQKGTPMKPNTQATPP

## SC-3-111: ICAM-1 based short-chain peptide, Sequence ID No. 10 (QTSVSPSKVI)
[1]; then FITC-labeled RB-1-88 1.90 μM, shift vs control
  FACS Analysis (RB-1-88 binding): -8%
[1]; then RB-1-88 1.90 μM, called probably not significant
  negative blocking shift of RB-1-88 binding (FIG. 8): 8%
[1]; FIGS. 8, 9
  effect on binding of labeled peptide (RB-1-88 / LJCRF-6) to T-cell ICAM-1: substantially no T-cell binding enhancement; also recorded: no effect
[2]; peptide 2275 μM
  Fluorescence, % change from control of the medium fluorescence intensity: -12 ± 4%
[2]; peptide 4550 μM, negative = blocking
  Fluorescence, % change from control of the medium fluorescence intensity: -29 ± 2%
[2]; single above-average run (FIGS. 2, 3), peptide 4550 μM, anti-CD11a
  blocking efficiency: 51%
[2]; single run of FIG. 2 (control 264.41), anti-CD11a
  sample median peak fluorescence intensity value: 128.74
[2]; single run of FIG. 2, peptide 4550 μM, anti-CD11a
  % change of median peak vs control: -51%

Reference: patent US5863889A, “ICAM-1/LFA-1 short-chain peptides and method of using same” (The University of Kansas, priority 1996, dated 1999)
